Reference: the RNAGym collection of RNA variant scans (doi:10.1073/pnas.2313332121)

B1: TPR t1 (parent)
chain: GACCAAUCUGCCCUCAGAGCUCGAGAACAUCUUCGGAUGCAGAGGAGGCAGGCUUCGGUGGCGCGAUAGCGCCAACGUCCUCAACCUCCAAUGCAUCCCACCACAUGAUGAUGCCUGAAGAGCCUUGGUUUUUUG

Variants of: B1
Experiment: polymerase ribozyme fitness, log enrichment relative to wild type (log ratio); higher = more active; in vitro selection for triplet polymerase activity
Procedure, shortened: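 Fitness measures genotype enrichment against wild-type enrichment on a logarithmic scale, with inverse-variance-weighted averaging of replicates. The logarithm is base 2, and genotypes were kept only with ≥10 input reads and ≥1 read per output in Illumina sequencing. The sequenced libraries came from one triplicate in vitro selection round, including frozen incubation at −7 °C, of PCR-built, transcribed mutant libraries of each subunit of a heterodimeric triplet polymerase ribozyme.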

| Variant | polymerase ribozyme fitness (log ratio) |
| --- | --- |
| GACCAAUCUGCCCUCAGAGCUCGAGAACAUCUUCGGAUGCAGACGAAGCAGGCUUCGGUGGCGCGAUAGCGCGAACGUCCUCAACCUCCAAUGCAUCCCACCACAUGAUGAUGCCUGAAGAGCCUUGGUUUUUUG [G44C G47A C73G] | -2.76 |
| GACCAAUCUGCCCUCAGAGCUCGAGAACAUCUUCGGAUGCAGACGAGGCAGGCUUCGGUGGCGCGAUAGCGCUAACGUCCUCAACCUCCAAUGCAUCCCACCACAUGAUGAGGCCUGAAUAGCCUUCGUUUUUUG [G44C C73U U112G G120U G127C] | -5.16 |
| GACCAAUCUGCCCUCAGAGCUCGAGAACAUCUUCGGAUGCAGACGAGGCAGGCUUCGGUGGCGCGAUAGCGCCAACGUCAUCAACCUCCAAUGCAUCCCACCACAUGAUUAUGCCUGAAGAGCAUUGGUUUUUUG [G44C C80A G110U C124A] | -6.53 |
| GACCAAUCUGCCCUCAGAGCUCGAGAACAUCUUCGGAUGCAGACAAGGCAGGCUUCGGUGUCGCGAUAGCGCCAACGGCCUCAACCUCCAAUGCAUCCCACCACAUGAUGAUGCCUGAAGAGCCUUGGUUUUUUG [G44C G45A G61U U78G] | -4.37 |
| GACCAAUCUGCCCUCAGAGCUCGAGAACAUCUUCGGAUGCAGACGAGGCAGGCUUCGGUGGCGCGAUAGCGUCACCGUCCUCAACCUCCAAGGCAUCCCACCACAUGAUGAUGCCUGAAGAGCCUUGGUUUUUUG [G44C C72U A75C U92G] | -2.94 |
| GACCAAUCUGCCCUCAGAGCUCGAGAACAUCUUCGGAUGCAGACGAGGCAGGCUUCGGUGGCGCGAUAGCGCCAACGUCCUCAACCUACAAUGCAUCCCACCACAUGAAGAUGCCUGAAGAGCCUUGGUUUUUUG [G44C C88A U109A] | -5.8 |
| GACCAAUCUGCCCUCAGAGCUCGAGAACAUCUUCGGAUGCAGACGAGGCAGGCUUCGGUGGCGCGAUAGCGCUAACGUCCUCAACUUCCAAUGCAGCCCACCACAUGAUGAUGCCUGAAGAGCCUUGGCUUUUUG [G44C C73U C86U U96G U129C] | -2.46 |
| GACCAAUCUGCCCUCAGAGCUCGAGAACAUCUUCGGAUGCAGACGAGGCAGGCUUCGGUGGCGCGAUAGCGGCAACGUCCUCAACCUUCAAUGCAUCCCAUCACAUGAUGAUGCCUGAAGAGCCUUGGUUUUUUG [G44C C72G C88U C101U] | -2.47 |
| GACCAAUCUGCCCUCAGAGCUCGAGAACAUCUUCGGAUGCAGACGAGGCAGGCUUCGGUGGCGCGAUAGCGCCAACGUCCUCAACCUCCAAUGCAUGCCACCACAUGAUGAAGCCUGAAGAGCCUUGGUUUUUUG [G44C C97G U112A] | -4.06 |
| GACCAAUCUGCCCUCAGAGCUCGAGAACAUCUUCGGAUGCAGACGAGGCAGGCUUUGGUGGCGCGAUAGCGCCAACGUCCUCAACCUCCAAUGCAUCCCACCACAUGAUGAUGCCUGAAGAGCCUUGGUUUUUUG [G44C C56U] | -0.735 |
| GACCAAUCUGCCCUCAGAGCUCGAGAACAUCUUCGGAUGCAGACGAGGCAGGCUUCGGUGGCGUGAUAGCGCCAACGUCCUCAACCUCCAAUGCAUCCCACCACAUGAUGGUGCCUGAAGAGCCUUGGUUUUUUG [G44C C64U A111G] | -0.526 |
| GACCAAUCUGCCCUCAGAGCUCGAGAACAUCUUCGGAUGCAGACGAGGCAGGCUUCGGUGGCGCGAUAGCGUCAACGUCCUCAACCUCCAAUGCAUCCCCCCACAUGAUGAUGCCUGAAGAGCCUUGGUUUUUUG [G44C C72U A100C] | -2.51 |
| GACCAAUCUGCCCUCAGAGCUCGAGAACAUCUUCGGAUGCAGACGAGGCAGGCUUCGGUGGCGCGAUAGCGCCAACGUCCUCAACCUCCAAUGCAUCCCACAACAUGAUGAUGCCUGAAUAGCCUUGGUUUUUUG [G44C C102A G120U] | -4.59 |
| GACCAAUCUGCCCUCAGAGCUCGAGAACAUCUUCGGAUGCAGACGAGGCAGGCUUCGGUGGCGCGAUAGGGCCAACGUCCUCAACCUCCAAUGCAUCCCACCACAUGAUGAUGCCUGAUGAGCCUUGGUUUUUUG [G44C C70G A119U] | -5.47 |
| GACCAAUCUGCCCUCAGAGCUCGAGAACAUCUUCGGAUGCAGACGAGGCAGGCUUCGGUGGCGCGAUAGCGCCAACGUCCUCAAUCUCCAAUGCAUCCCACCACAUGAUGAUGCCUAAAGAGCACUGGUUUUUUG [G44C C85U G117A C124A U125C] | -1.55 |
| GACCAAUCUGCCCUCAGAGCUCGAGAACAUCUUCGGAUGCAGACGAGGCAGGCUUCGGUGGCGCGAUAGCGCCAACGUCCUCAACCUGCAAUGCAUCCCACCACAUGAUGAUGCCUAAAGAGGCUUGGUUUUUUG [G44C C88G G117A C123G] | -2.7 |
| GACCAAUCUGCCCUCAGAGCUCGAGAACAUCUUCGGAUGCAGACGAGGCAGGCUUCGGUGGCGCGAUAGCGCCAACGUCCUCAACCUCCAAUGGAUCCCACCACAUGAUGAUGCCUGAAGGGCCUUGGUUUUUUG [G44C C94G A121G] | 0.2 |
| GACCAAUCUGCCCUCAGAGCUCGAGAACAUCUUCGGAUGCAGACGAGGCAGGCUUCGGUGGCGCGAUAGCGCCAACGUCCUCAACCUCCAAUGCAUCCCACCACAUGAUGAUGCGUGAAGAGCCUUGGUUUUUUG [G44C C115G] | -2.64 |
| GACCAAUCUGCCCUCAGAGCUCGAGAACAUCUUCGGAUGCAGACGAGGCAGGCUUCGGUGGAGCGAUAGCGCCAACGUCCUCAACCUCCAAUGCAUCCCACCACAUGAUGAUGCCUGAAGAGCCUUGGUUUCUUG [G44C C62A U132C] | -2.12 |
| GACCAAUCUGCCCUCAGAGCUCGAGAACAUCUUCGGAUGCAGACUAGGCAGGCUUCGGUGGCGCGAUAGCGCCAACGUCCUCAACCUCCAAUGCAUCCCACCACAUGAUGAUGCCUGAAGAGCCUUGGUUUUUUG [G44C G45U] | -2.11 |
| GACCAAUCUGCCCUCAGAGCUCGAGAACAUCUUCGGAUGCAGACGAGGCAGGCUUCGGUGGCGUGAUAGCGCCAACGUCCUCAACCUCCAAUGCAUCCCACCACAUGAUGAUGCCUGAAGAGCCUUGGUUUUUUG [G44C C64U] | -0.652 |
